From publication doi:10.1101/2022.02.17.480967

Target: H1.2 2-108 (UniProt P16403 2-108)
Test: fluorescence polarization

H1.2 2-108, sequence (P16403 2-108): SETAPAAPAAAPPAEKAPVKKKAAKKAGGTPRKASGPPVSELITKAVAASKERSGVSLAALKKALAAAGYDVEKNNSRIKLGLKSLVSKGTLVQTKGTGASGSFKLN

B1: fluorescein-labeled 30-mer DNA (printed strands are 27 nt) (dsDNA)
DNA 1: ATCATTAATATGAATTCGCCACATGCA
DNA 2: TGCATGTGGCGAATTCATATTAATGAT
binding signal: 50 fold lower affinity than full-length H1.2
